# Measured values: paper PMC2893164, “Structural Basis of Gate-DNA Breakage and Resealing by Type II Topoisomerases” (PLoS ONE, 2010)
# B1: S. pneumoniae ParE TOPRIM domain (ParE30, residues 404-647) (domain or fragment, Streptococcus pneumoniae, UniProt Q59961 404-647, looked up)
# chain: KNKKDKGLLSGKLTPAQSKNPAKNELYLVEGDSAGGSAKQGRDRKFQAILPLRGKVVNTAKAKMADILKNEEINTMIYTIGAGVGADFSIEDANYDKIIIMTDADTDGAHIQTLLLTFFYRYMRPLVEAGHVYIALPPLYKMSKGKGKKEEVAYAWTDGELEELRKQFGKGATLQRYKGLGEMNADQLWETTMNPETRTLIRVTIEDLARAERRVNVLMGDKVEPRRKWIEDNVKFTLEETTVF
# notes: Topoisomerase IV subunit ParE, Streptococcus pneumoniae, TOPRIM domain, residues 404-647; also called topoisomerase IV subunit ParE; source: E. coli, over-expressed, purified as described previously
# B2: S. pneumoniae ParC breakage-reunion domain (ParC55, residues 1-488) (domain or fragment, Streptococcus pneumoniae, UniProt P72525 1-488, looked up)
# chain: MSNIQNMSLEDIMGERFGRYSKYIIQDRALPDIRDGLKPVQRRILYSMNKDSNTFDKSYRKSAKSVGNIMGNFHPHGDSSIYDAMVRMSQNWKNREILVEMHGNNGSMDGDPPAAMRYTEARLSEIAGYLLQDIEKKTVPFAWNFDDTEKEPTVLPAAFPNLLVNGSTGISAGYATDIPPHNLAEVIDAAVYMIDHPTAKIDKLMEFLPGPDFPTGAIIQGRDEIKKAYETGKGRVVVRSKTEIEKLKGGKEQIVIIEIPYEINKANLVKKIDDVRVNNKVAGIAEVRDESDRDGLRIAIELKKDANTELVLNYLFKYTDLQINYNFNMVAIDNFTPRQVGIVPILSSYIAHRREVILARSRFDKEKAEKRLHIVEGLIRVISILDEVIALIRASENKADAKENLKVSYDFTEEQAEAIVTLQLYRLTNTDVVVLQEEEAELREKIAMLAAIIGDERTMYNLMKKELREVKKKFATPRLSSLEDTAKA
# modifications: Tyr 118 linked covalently to the 5' phosphate end of the cleaved DNA (in the cleaved complexes; not in the resealed complex)
# notes: Topoisomerase IV subunit ParC, Streptococcus pneumoniae, breakage-reunion domain, residues 1-488; also called topoisomerase IV subunit ParC; source: E. coli, over-expressed, purified as described previously
# What was measured:
# [1] = molecular target: B2; test: crystal structure; ParC55 and ParE30 (equimolar, 4 mg/ml) co-crystallised with the 34-bp E-site DNA (1:1:1.2) and quinazolinedione PD 0305970, 20 mM MgCl2, pH 7.0; 3.1 A; the same crystals back-soaked and soaked with levofloxacin (2.9 A), EDTA (3.3 A) or EDTA then Mg2+ (3.5 A); conditions: both partners purified
# [2] = molecular target: the molecule itself; test: as above
binder,measurement,setting,value
B1,binding result,[1],binds
B2,stoichiometry N,[2],2
